Test results: patent publication US20190248848A1

Key:
[1] = biological target: histone H3 trimethylated at lysine 27 (H3K27me3) in cellular chromatin at the Tk-luciferase reporter of HEK293 Gal4-EED/luc cells; assay: cell-based or functional assay
[2] = biological target: biotinylated histone H3 peptide trimethylated at lysine 27, H3K27me3 (21-44) (UniProt P68431); assay: histone peptide microspot array, 10 and 20 µM spotted H3K27me3

| Substance | luciferase activity, Tk-luciferase reporter, HEK293 Gal4-EED/luc cells, 96 hours dox (fold against PcTF) [1] | fold smaller Kd^app than PcTF [2] [fold] |
| --- | --- | --- |
| Pc2TF with the flexible linker (GGGGS)4 (MV10 mammalian expression construct, expressed in HEK293 Gal4-EED/luc cells) (from UniProt Q9HC52 1-62; Q9HC52 1-62) (designed binder) | 2 |  |
| Pc2TF, bivalent Polycomb-based transcription factor with the flexible linker (GGGGS)4 (pET28 construct; TXTL-expressed or purified from E. coli) (from UniProt Q9HC52 1-62; Q9HC52 1-62) (designed binder) |  | 2 |
